The text below walks through data of PMC6152312, “Structural Insight into the Recognition of r(UAG) by Musashi-1 RBD2, and Construction of a Model of Musashi-1 RBD1-2 Bound to the Minimum Target RNA”.

The data set has as its target Msi1(109-200) (RBD2+) (mouse, UniProt Q61474 109-200). In words: NMR titration (15N-1H HSQC); 1:1 stoichiometry, slow exchange; 20 mM MES pH 6.0, 100 mM NaCl, 1 mM DTT, 5% D2O, 298 K (NMR sample; titration at 80 uM protein). The following applies: protein: recombinant; tags: N-terminal His6 cleaved by thrombin; extra GSHM at N-terminus; single strand.

Sequence of Msi1(109-200) (RBD2+) (Q61474 109-200): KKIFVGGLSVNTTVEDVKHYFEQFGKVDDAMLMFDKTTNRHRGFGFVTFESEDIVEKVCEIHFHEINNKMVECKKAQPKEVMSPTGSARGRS

On to GUAGU (ssRNA) [r(GUAGU)], for which the binding result is given as “binds”.
